# Reference: IntAct's records for PubMed 22135460
# B1: Late transcription coactivator (Enterobacteria phage T4), P13338 (parent)
# chain: MTQFSLNDIRPVDETGLSEKELSIKKEKDEIAKLLDRQENGFIIEKMVEEFGMSYLEATTAFLEENSIPETQFAKFIPSGIIEKIQSEAIDENLLRPSVVRCEKTNTLDFLL
# Variants of: B1
# Conditions: with rpob_ecoli rpoB
row,Variant,effect of a mutation on the interaction
1,MTQFSLNDIRPVDETGLSEKELSIKKEKDEIAKLLDRQENGFIIEKMVEEFGMSYLEATTAFLEENSIPKTQFAKFIPSGIIEKIQSEAIDENLLRPSVVRCEKTNTLDFLL,decreasing interaction strength
